In patent US20130337438A1 (JAPAN HEALTH SCIENCES FOUNDATION, published 2013):

Legend:
[1] = target: T1, P56/75 (amino acids 56-75 of HPV16 L2 protein) (human papillomavirus type 16, conjugated with keyhole limpet hemocyanin (KLH) via cysteine); assay: affinity purification on KLH-P56/75 sepharose
T1 construct: Synthetic peptide; It was conjugated with KLH via an added cysteine (KLH-P56/75); also called KLH-P56/75; L2 peptide (56-75)
T1 peptide: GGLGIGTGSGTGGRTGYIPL

HPV16 L1/L2-capsid = target: T2, HPV16 L1/L2-capsid (human papillomavirus type 16, UniProt P03107 1-473; P03101 1-505); assay: hybridoma screening ELISA on HPV16 L1/L2-capsid
T2 construct: Capsid of co-expressed L1 and L2; It was made in 293FT cells (Test Method 2) or in Sf9 insect cells with baculovirus (Test Method 3); The pseudovirus of Test Method 1 is the same capsid carrying a SEAP plasmid; also called L1/L2-capsid of type 16; HPV16 pseudovirus (PsV)
T2 sequence 1: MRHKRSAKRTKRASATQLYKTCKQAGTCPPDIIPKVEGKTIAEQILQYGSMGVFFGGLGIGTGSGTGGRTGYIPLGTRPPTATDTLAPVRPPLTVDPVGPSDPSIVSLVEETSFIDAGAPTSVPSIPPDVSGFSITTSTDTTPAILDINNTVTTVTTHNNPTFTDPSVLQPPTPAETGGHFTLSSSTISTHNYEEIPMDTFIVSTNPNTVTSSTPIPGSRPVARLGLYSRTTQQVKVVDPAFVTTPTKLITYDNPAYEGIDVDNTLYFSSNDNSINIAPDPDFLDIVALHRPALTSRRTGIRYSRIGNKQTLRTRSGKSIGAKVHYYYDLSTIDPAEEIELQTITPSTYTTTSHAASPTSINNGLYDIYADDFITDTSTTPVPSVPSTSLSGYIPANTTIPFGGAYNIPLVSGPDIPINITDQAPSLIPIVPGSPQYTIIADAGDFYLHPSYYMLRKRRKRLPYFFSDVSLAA
T2 sequence 2: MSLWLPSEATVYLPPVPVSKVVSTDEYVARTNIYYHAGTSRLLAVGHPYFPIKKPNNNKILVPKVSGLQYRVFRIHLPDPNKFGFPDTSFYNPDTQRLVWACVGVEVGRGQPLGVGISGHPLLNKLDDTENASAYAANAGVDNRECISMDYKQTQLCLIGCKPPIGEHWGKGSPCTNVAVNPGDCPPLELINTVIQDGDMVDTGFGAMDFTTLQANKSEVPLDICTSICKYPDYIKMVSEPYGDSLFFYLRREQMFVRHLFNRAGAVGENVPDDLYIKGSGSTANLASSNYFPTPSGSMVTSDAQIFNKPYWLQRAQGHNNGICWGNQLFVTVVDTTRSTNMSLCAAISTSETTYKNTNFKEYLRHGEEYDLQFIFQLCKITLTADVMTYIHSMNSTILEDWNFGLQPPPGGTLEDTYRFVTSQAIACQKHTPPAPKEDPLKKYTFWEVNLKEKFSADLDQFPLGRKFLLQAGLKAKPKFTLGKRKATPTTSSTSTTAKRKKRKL

HPV31 L1/L2-capsid = target: T3, HPV31 L1/L2-capsid (human papillomavirus type 31, UniProt P17389 1-466; P17388 1-504); assay: ELISA on immobilized L1/L2-capsid, purified antibody 250 ng/well
T3 construct: Capsid of co-expressed L1 and L2 from 293FT cells; The pseudovirus is the same capsid with a reporter plasmid; also called L1/L2-capsid of type 31; HPV31 pseudovirus
T3 sequence 1: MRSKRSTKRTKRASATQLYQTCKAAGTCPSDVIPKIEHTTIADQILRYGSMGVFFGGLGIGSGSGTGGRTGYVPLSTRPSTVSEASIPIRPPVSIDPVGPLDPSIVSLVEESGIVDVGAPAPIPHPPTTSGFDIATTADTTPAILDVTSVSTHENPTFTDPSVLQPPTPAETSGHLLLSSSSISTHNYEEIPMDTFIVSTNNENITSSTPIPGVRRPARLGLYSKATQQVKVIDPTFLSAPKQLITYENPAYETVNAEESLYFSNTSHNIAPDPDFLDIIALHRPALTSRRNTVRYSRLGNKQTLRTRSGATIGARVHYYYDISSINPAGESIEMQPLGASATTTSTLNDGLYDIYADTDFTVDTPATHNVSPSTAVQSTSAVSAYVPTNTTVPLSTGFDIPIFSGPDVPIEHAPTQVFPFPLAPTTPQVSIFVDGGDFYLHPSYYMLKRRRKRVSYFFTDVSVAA
T3 sequence 2: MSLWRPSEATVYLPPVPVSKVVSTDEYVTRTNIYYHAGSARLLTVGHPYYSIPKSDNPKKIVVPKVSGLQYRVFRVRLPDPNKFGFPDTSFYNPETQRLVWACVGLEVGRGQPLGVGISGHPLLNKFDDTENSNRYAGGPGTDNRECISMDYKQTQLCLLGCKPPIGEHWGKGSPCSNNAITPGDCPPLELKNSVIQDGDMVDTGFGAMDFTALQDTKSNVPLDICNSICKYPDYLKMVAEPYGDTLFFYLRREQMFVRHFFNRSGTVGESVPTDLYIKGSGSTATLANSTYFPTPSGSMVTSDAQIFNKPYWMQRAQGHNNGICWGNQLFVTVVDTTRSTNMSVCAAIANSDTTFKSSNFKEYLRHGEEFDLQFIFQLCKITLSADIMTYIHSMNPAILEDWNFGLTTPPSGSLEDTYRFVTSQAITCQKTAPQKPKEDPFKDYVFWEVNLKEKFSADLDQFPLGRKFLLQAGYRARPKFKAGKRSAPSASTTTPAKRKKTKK

Measured: binding result

B1: monoclonal antibody 13B (antibody, V domains shown)
VH: DVQLQESGPGLVKPSQSLSLSCTVTGYSITSDSAWNWIRQFPGNKLEWMGYITFSGSTNYNPSLKSRLSITRDTSKNQFFLQLNSVTTEDTATYYCTGPFLDYWGQGTTLTVSS
VL: DVVMTQTPLSLPVSLGDQATISCRSSLSLVLSNRITYLQWYLQKPGQSPKLLIYKVSNRFSGVPDRFSGSGSGTDFTLKISRVEAEDLGVYFCSQSSHFPWTFGGGTKLEIKR
notes: Used as mouse ascites or as antibody purified from ascites; also called Mouse-Mouse hybridoma 13B (FERM BP-11304)
binds: [1] | HPV16 L1/L2-capsid | HPV31 L1/L2-capsid

B2: monoclonal antibody 24B (antibody, V domains shown)
VH: EVQLQQSGTVLARPGASVKMSCKASVYSFPSNWMHWVKQRPGQGLEWIGAIYPGTGATRYNQKFKDKAKLTAVTSADTAYMELSSLTDEDSAVYYCTGYSLYWGQGTILTVSS
VL: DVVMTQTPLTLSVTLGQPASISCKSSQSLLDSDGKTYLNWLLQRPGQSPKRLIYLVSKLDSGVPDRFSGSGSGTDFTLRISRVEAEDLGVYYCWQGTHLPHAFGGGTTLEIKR
notes: Used as mouse ascites or as antibody purified from ascites; also called Mouse-Mouse hybridoma 24B (FERM BP-11305)
binds: [1] | HPV16 L1/L2-capsid | HPV31 L1/L2-capsid
